Results published in patent US20250340628A1, “COMPOSITIONS AND METHODS FOR TREATING MACROPHAGE ACTIVATION SYNDROME” (TJ Biopharma (Hangzhou) Co., Ltd., priority 2022, published 2025).
“Also recorded” adds a separate entry of the source.

What was measured:
[1] = type: physicochemical
Method: Three different buffer systems, sodium acetate, histidine hydrochloride and sodium dihydrogen phosphate, were initially evaluated, at various different pH levels, for IMH001. […] The next step evaluated a number of excipients, including sucrose, trehalose, mannitol, proline, arginine hydrochloride, glycine, solidum chloride, PS20 and PS80. According to the changes in stability (CEX-HPLC) results at 50° C. for 1 week, comparison was carried out for the formulation with different excipients. […] It was unknown, however, whether the selected buffer and excipient would allow a protein solubility of IMH001 suitable for subcutaneous injection at a high concentration. The solubility and viscosity of the protein at concentrations of 100 mg/ml and 150 mg/ml in histidine hydrochloride buffer system (pH 5.8) were therefore assessed. […] PS80 (Polysorbate 80) was then tested for its ability to improve durability and stability of the candidate formulations, at different concentrations of sucrose for a protein concentration of 100 mg/ml.

[2] = system: macrophage activation syndrome (MAS) model in NOG-EXL mice (overexpress human IL-3 and GM-CSF); experiment: macrophage activation syndrome (MAS) model induced by CBMC transplantation in NOG-EXL mice; type: in vivo
Method: This study is performed to evaluate the in vivo efficacy of IMH001 (see sequences in Table 1), a GM-CSF neutralization antibody, on delaying the disease progression in a macrophage activation syndrome (MAS) model (induced by CBMC transplantation) in NOG-EXL mice. This lymphocyte-independent, effector-driven MAS mice model can be established by engrafting human umbilical cord blood (UCB) into NOG-EXL mice. NOG-EXL (NOD.Cg-Prkdc^scidIL2g^tm1SugTg (SV40/HTLV-IL3, CSF2) is a gene modified strain based on NOG (NOD.Cg-Prkdc^scidIL2^tm1Sug) mice, which is immunodeficient and overexpress human IL-3 and GM-CSF continuously, which can enrich the myeloid cell populations, including Dc, monocyte and macrophage, following human stem cell engraftment. A total of 46 NOG-EXL and 8 NOG mice were used in the study.
Five to six-week-old NOG-EXL mice were irradiated with 1 Gy before tail vein injection of OKT3-pretreated cord blood mononuclear cells (CBMC) reconstitution. The day of reconstruction was defined as Day 0. OKT3-pretreated CBMC engrafted NOG-EXL mice were treated with biweekly i.p. doses of PBS or 10 mg/kg IMH001 starting from week 1 of engraftment. Animal body weights, CBC counting, and serum ferritin were measured at indicated time points.
Four NOG mice (G1) and 14 NOG-EXL mice (6 mice for G2 and 8 mice for G3, respectively) were dosed one week after reconstruction (Day 7), twice a week for 15 weeks. The grouping and dosing regimens were as follows in Table 2:
Body weight: The body weight of mice was measured and recorded once a week after CBMC transplantation.
CBC counting: Whole blood was collected from mice and counted by a CBC machine at week 4, 8 and 16. And at the end of the study, i.e. week 16, total bone marrow viable cells were also counted. Before blood collection, mice were anesthetized with 3-4% isoflurane.
Ferritin, fibrinogen and triglycerides: Serum was collected from mice at week 8 and 16. Then measured separately using ELISA kits. Prior to blood collection, mice were anesthetized with 3-4% isoflurane.
Experimental endpoint collection: The endpoint is Day 112/Week 16. Spleens were collected and weighed from all mice of each groups; cell smears from bone marrow, sections of liver and spleen were collected for Wright Giemsa staining to detect the presence of hemophagocytosis. Activated lymphoid tissue, spleen/lymph nodes, liver, and meninges were collected for H&E section to detect inflammatory cell infiltration and depletion of lymphoid follicles in spleen/lymph nodes.
All data statistical analysis methods involved in this project needed to be consistent with the protocol, and the results were expressed as mean±SEM. Firstly, F-test (IDBS E-WorkBook 10.5.0 (64 bit) © TDBS) was used to analyze the homogeneity of variance. If the variance was homogeneity (p>0.05), one-way ANOVA was carried out. T-test was used for two groups comparation, and Dunnett's multiple comparison method was used for multiple groups comparation. If the variance was heterocedasticity (p≤0.05), Kruskal Wallis method was performed for nonparametric test, U-test was used for two groups comparation (Kruskal Wallis parameter test has significant difference, p≤0.05), and Dunn's multiple comparison method was used for multiple groups comparation (Kruskal Wallis parameter test has no significant difference, p>0.05). p<0.05 was considered as significant difference.

[3] = 100 mg/ml and 150 mg/ml in 20 mmol/L histidine hydrochloride pH 5.8, 4° C. and 25° C. for 48 hours
[4] = serum, week 8 and 16, 10 mg/kg i.p. BIW

B1: IMH001: humanized IgG1 anti-GM-CSF neutralization antibody with VH of SEQ ID NO:1 and VL of SEQ ID NO:2 (antibody, V domains shown)
VH: EVQLVQSGAEVKKPGASVKVSCKASGYTFTSHYLHWVRQAPGQGLEWMGWIFPGDDKTKYNEKFKGRVTMTSDTSISTAYMELSRLRSDDTAVYYCARGTKYLNWNFDVWGQGTTVTVSS
VL: DIQLTQSPSFLSASVGDRVTITCKANQNVGTTLAWYQQKPGKSPKALIYSASYRYSGVPDRFSGSGSGTDFTLTISSLQPEDFATYFCHQYTTYPLTFGGGTKVEIK
[1]
  antibody stability in buffer systems: stable
[1]; [3]
  changes in appearance color, clarity, OD350, protein concentration and viscosity: no obvious changes
  viscosity: lower than 10 cP
[1]; protein concentration 100 mg/ml
  viscosity of samples with PS80 and different sucrose concentrations: acceptable
[2]; 10 mg/kg i.p. BIW (G3) vs vehicle control group (G2), Day 63 to Day 112, p<0.05
  body weight: significantly increased; also recorded: reduced weight loss
[2]; 10 mg/kg i.p. BIW for 15 weeks
  disease development / progression (overall): completely reversed; also recorded: showed efficacy
[2]; 10 mg/kg i.p. BIW vs untreated
  NEUT percent: recovery
[2]; 10 mg/kg i.p. BIW vs untreated NOG-EXL, in words
  RBC number in peripheral blood (anemia): effectively improve; also recorded: ameliorated anemia
[2]; 10 mg/kg i.p. BIW vs untreated, Day 56
  HGB level: significantly higher; also recorded: increase
[2]; 10 mg/kg i.p. BIW, considered pharmacological effect
  monocyte percent: decrease
[2]; day 112, 10 mg/kg i.p. BIW, vs NOG-EXL untreated 9.55, p=0.182
  total bone marrow viable cells (mean value): 11.6
[2]; peripheral blood CBC, Day 56, 10 mg/kg i.p. BIW, vs untreated 6.45, p<0.001
  RBC cell number: 8.17
[2]; [4]
  Fibrinogen: No significant changes
  Triglyceride: No significant changes
[2]; serum, wk 8 and wk 16, 10 mg/kg i.p. BIW vs untreated
  Ferritin level: effectively control; also recorded: significantly reduce; also recorded: inhibited ferritin increase
[2]; wk 16, H&E, liver and meninx
  inflammatory infiltration (histopathology): decreased; also recorded: improved significantly
[2]; wk 16, H&E, spleen and lymph nodes
  lymphocyte exhaustion (histopathology): effectively reduce; also recorded: improved significantly
[2]; wk 16, Wright Giemsa staining of bone marrow smears, liver and spleen sections
  hemophagocytosis (histopathology): effectively prevent; also recorded: improved significantly
